Reference: publication PMC6564688 (Nature structural & molecular biology, 2019)
Blank lines part the entries; values can stand above or below the molecule they belong to.

Columns and labels:
[1] = biological target: chicken Otop3 (chicken); test: cryo-EM structure
[2] = biological target: the molecule itself; test: cryo-EM structure

stoichiometry N [1]: 2
Molecule: chicken Otop3 (natural protein)

B1: zebrafish Otop1 (natural protein, UniProt Q7ZWK8 1-586, looked up)
chain: MVEHGGTDSMWLNKYNPAAASSASSSSSSDAENKLFSRLKVSLTKKYPQKNAELLSAQYGTNLLLLGVSVMLALAAQSGPVKEEHLLSFITVLMLVQLVWMLCYMIRRERERSPVPERDAHAGASWIRGGLTMLALLSLIMDAFRIGYFVGYHSCISAALGVYPIVHALHTISQVHFLWFHIKDVIKKYETFERFGVIHAVFTNLLLWCNGVMSETEHFMHNHRRRLIEMGYANLSTVDVQPHCNCTTSVCSMFSTSLYYLYPFNIEYHIFVSAMLFVMWKNIGRTLDRHSNRKRRSTGSTGLLLGPLGGLVALASSVSVLVVYLIHLEKTEEMHEAAVSMFYYYGVAMMACMCVGSGTGLLVYRMENRPMDTGSNPARTLDTELLLASSLGSWLMSWCSVVASVAEAGQKSPSFSWTSLTYSLLLVLEKCIQNLFIVESLYRRHSEEEEDAAAPQVFSVAVPPYDGILNHGYEAHDKHREAEPAAGSHALSRKQPDAPLPAGQRLDVTPGRKRQILKNICMFLFMCNISLWILPAFGCRPQYDNPLENETFGTSVWTTVLNVAIPLNLFYRMHSVASLFEVFRKV
stoichiometry N [2]: 2
